Molecular target: Light-Harvesting Complex II (LHCII) (spinach)
Assay: native gel or EMSA

stoichiometry N: 3
Substance: Light-Harvesting Complex II (LHCII)

Reference: article doi:10.1101/609255
